In patent publication US20100135951A1 (UAB RESEARCH FOUNDATION, published 2010):
Blank lines part the entries; values can stand above or below the binder they belong to.

What was measured:
[1] = molecular target: T1, cIAP1 (human, UniProt Q13490 1-618); assay: TRAIL-R2 co-IP from transfected TRA-8-resistant tumor cells, Western blot with anti-DDX3 and anti-cIAP1
Method: (§1) The transfected cells were incubated with 500 ng/ml TRA-8 overnight.
Four type cells were transfected with DDX3ΔCARD. […] Furthermore, the susceptibility of transfected cells to TRA-8-mediated apoptosis was examined using the ATPLITE assay.

[2] = molecular target: T1, cIAP1; assay: nickel bead pull-down of His-tagged DDX3 from transfected HEK293A cells, anti-cIAP1 Western blot
Method: as §1

T1 sequence (Q13490 whole entry): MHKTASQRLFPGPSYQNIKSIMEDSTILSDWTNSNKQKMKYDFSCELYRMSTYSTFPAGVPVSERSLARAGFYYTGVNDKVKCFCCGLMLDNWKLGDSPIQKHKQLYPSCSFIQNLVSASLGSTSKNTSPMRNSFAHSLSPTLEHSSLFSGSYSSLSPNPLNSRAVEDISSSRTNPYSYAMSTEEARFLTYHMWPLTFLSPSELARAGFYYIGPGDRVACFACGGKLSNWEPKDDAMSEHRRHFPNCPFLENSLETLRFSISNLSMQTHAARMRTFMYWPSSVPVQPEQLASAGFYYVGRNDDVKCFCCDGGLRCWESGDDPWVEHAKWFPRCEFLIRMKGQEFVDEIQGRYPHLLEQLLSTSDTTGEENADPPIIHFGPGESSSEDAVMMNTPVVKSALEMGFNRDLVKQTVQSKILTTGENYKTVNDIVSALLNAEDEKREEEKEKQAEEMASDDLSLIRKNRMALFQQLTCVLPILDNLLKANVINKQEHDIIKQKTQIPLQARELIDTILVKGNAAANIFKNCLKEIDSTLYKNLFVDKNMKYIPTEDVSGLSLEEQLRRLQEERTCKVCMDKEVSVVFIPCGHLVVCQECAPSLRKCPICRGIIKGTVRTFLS

- binding result [1]: no binding
B1: DDX3ΔCARD (DDX3Δ151-662) (other)
chain: FSGGNTGINFEKYDDIPVEATGNNCPPHIESFSDVEMGEIIMGNIELTRYTRPTPVQKHAIPIIKEKRDLMACAQTGSGKTAAFLLPILSQIYSDGPGEALRAMKENGRYGRRKQYPISLVLAPTRELAVQIYEEARKFSYRSRVRPCVVYGGADIGQQIRDLERGCHLLVATPGRLVDMMERGKIGLDFCKYLVLDEADRMLDMGFEPQIRRIVEQDTMPPKGVRHTMMFSATFPKEIQMLARDFLDEYIFLAVGRVGSTSENITQKVVWVEESDKRSFLLDLLNATGKDSLTLVFVETKKGADSLEDFLYHEGYACTSIHGDRSQRDREEALHQFRSGKSPILVATAVAARGLDISNVKHVINFDLPSDIEEYVHRIGRTGRVGNLGLATSFFNERNINITKDLLDLLVEAKQEVPSWLENMAYEHHYKGSSRGRSKSSRFSGGFGARDYRQSSGASSSSFSSSRASSSRSGGGGHGSSRGFGGGGYGGFYNSDGYGGNYNSQGVDWWGN
notes: also called CARD-truncated DDX3; dominant negative mutant DDX3 lacking aa 1-150

- binding result [2]: no binding
B2: DDX3Δ101-662 (other)
chain: RSDYDGIGSRGDRSGFGKFERGGNSRWCDKSDEDDWSKPLPPSERLEQELFSGGNTGINFEKYDDIPVEATGNNCPPHIESFSDVEMGEIIMGNIELTRYTRPTPVQKHAIPIIKEKRDLMACAQTGSGKTAAFLLPILSQIYSDGPGEALRAMKENGRYGRRKQYPISLVLAPTRELAVQIYEEARKFSYRSRVRPCVVYGGADIGQQIRDLERGCHLLVATPGRLVDMMERGKIGLDFCKYLVLDEADRMLDMGFEPQIRRIVEQDTMPPKGVRHTMMFSATFPKEIQMLARDFLDEYIFLAVGRVGSTSENITQKVVWVEESDKRSFLLDLLNATGKDSLTLVFVETKKGADSLEDFLYHEGYACTSIHGDRSQRDREEALHQFRSGKSPILVATAVAARGLDISNVKHVINFDLPSDIEEYVHRIGRTGRVGNLGLATSFFNERNINITKDLLDLLVEAKQEVPSWLENMAYEHHYKGSSRGRSKSSRFSGGFGARDYRQSSGASSSSFSSSRASSSRSGGGGHGSSRGFGGGGYGGFYNSDGYGGNYNSQGVDWWGN
notes: Transfected into HEK293A cells and pulled down with nickel beads; also called the DDX3 with the first 100 aa deleted; N-terminal aa 1-aa 100 deleted DDX3; not shown: N-terminal 6-His tag of the pcDNA3.1-His vector
